T1: Pol α catalytic subunit (334-1462), as in the truncated human primosome (human, UniProt P09884 334-1462)
T1 construct: also called DNA polymerase α; catalytic subunit of Pol α
T1 sequence (looked up): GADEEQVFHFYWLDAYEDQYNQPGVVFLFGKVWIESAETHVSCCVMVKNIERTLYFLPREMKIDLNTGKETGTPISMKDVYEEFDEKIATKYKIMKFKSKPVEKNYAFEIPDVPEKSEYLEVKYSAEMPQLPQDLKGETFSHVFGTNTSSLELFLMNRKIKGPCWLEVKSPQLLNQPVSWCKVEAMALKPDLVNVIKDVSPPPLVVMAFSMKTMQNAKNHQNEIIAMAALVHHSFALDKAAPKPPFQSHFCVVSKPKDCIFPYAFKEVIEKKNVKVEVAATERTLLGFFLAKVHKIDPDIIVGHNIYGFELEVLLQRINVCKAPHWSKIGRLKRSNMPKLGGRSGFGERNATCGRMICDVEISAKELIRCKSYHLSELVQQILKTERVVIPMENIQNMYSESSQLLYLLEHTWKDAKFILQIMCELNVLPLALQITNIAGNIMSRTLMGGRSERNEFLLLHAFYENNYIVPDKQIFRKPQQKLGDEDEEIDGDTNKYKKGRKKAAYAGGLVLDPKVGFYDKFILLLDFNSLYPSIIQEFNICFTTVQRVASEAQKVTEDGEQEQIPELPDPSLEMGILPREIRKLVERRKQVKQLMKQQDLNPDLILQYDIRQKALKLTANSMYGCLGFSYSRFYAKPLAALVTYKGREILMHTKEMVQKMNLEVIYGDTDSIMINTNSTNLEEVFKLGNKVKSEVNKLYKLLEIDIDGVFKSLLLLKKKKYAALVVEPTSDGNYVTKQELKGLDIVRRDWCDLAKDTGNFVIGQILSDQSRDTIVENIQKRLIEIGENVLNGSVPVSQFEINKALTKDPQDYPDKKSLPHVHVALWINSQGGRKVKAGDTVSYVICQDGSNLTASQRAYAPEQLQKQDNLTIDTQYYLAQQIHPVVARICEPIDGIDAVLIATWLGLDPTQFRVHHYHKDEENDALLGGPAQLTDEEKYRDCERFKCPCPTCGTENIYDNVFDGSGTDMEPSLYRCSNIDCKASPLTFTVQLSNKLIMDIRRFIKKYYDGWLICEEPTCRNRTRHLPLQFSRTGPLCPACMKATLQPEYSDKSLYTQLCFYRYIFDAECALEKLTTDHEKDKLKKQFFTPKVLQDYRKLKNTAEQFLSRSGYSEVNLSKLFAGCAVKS


Assays:
Conditions in all cases: both partners purified
[1] = biological target: T2, Truncated human primosome (Pol α: 334-1462; B subunit: 149-598; PriS: 1-420; PriL: 1-509) (human, UniProt P09884 334-1462; Q14181 149-598; P49642 1-420; P49643 1-509); experiment: pull-down
T2 construct: also called truncated primosome; Pol α - primase
T2 sequence (Q14181 149-598, chain 2 of 3): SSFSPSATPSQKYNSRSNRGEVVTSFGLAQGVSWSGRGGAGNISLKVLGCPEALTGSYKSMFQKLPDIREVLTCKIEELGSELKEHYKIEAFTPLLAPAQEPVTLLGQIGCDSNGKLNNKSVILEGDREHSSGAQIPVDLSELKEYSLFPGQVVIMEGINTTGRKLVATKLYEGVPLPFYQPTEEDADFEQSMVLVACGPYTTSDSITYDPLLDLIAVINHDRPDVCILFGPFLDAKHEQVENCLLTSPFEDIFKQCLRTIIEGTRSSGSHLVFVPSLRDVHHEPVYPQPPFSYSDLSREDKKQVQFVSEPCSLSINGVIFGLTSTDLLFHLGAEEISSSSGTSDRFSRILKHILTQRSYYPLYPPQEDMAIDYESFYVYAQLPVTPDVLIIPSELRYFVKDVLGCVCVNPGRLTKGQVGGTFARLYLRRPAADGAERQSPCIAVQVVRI
T2 sequence (P49642 whole entry, chain 3 of 3, the tested form may be a part): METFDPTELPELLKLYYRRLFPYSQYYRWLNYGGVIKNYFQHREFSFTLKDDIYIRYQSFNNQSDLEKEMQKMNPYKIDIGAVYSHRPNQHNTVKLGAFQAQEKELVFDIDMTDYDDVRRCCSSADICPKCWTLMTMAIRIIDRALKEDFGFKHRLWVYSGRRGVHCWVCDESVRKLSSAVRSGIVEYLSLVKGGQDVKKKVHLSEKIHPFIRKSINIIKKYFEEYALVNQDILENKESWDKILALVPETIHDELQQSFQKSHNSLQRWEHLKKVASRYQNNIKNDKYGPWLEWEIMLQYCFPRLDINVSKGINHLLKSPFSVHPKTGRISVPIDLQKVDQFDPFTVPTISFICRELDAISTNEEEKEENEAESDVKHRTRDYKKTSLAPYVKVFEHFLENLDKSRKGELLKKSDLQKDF
T2 sequence (P49643 whole entry, chain 4 of 3, the tested form may be a part): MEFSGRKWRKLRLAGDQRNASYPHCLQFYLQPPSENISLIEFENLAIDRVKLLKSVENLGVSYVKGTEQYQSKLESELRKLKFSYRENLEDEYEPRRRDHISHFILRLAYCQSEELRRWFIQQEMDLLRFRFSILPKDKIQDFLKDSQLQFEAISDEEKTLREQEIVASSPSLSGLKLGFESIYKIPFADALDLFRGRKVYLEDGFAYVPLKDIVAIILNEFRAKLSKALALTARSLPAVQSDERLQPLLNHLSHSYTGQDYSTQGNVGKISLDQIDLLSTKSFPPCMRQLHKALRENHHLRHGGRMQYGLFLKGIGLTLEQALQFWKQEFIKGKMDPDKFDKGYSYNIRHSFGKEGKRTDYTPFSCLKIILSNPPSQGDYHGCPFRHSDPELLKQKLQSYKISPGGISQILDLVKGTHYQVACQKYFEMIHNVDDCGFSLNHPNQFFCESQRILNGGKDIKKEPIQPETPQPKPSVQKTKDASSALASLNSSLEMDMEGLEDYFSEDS

[2] = biological target: T1, Pol α catalytic subunit (334-1462), as …; experiment: […]) in 25 mM HEPES pH 7.2, 150 mM KCl, 1 mM DTT; […]
[3] = biological target: T2, Truncated human primosome (Pol α: …); experiment: as above
[4] = biological target: T3, Full-length human primosome (Pol α: 1-1462; B subunit: 1-598; PriS: 1-420; PriL: 1-509) (human, UniProt P09884 1-1462; Q14181 1-598; P49642 1-420; P49643 1-509); experiment: pull-down
T3 construct: also called DNA polymerase α - primase complex; Pol α - primase
T3 sequence (Q14181 whole entry, chain 2 of 3): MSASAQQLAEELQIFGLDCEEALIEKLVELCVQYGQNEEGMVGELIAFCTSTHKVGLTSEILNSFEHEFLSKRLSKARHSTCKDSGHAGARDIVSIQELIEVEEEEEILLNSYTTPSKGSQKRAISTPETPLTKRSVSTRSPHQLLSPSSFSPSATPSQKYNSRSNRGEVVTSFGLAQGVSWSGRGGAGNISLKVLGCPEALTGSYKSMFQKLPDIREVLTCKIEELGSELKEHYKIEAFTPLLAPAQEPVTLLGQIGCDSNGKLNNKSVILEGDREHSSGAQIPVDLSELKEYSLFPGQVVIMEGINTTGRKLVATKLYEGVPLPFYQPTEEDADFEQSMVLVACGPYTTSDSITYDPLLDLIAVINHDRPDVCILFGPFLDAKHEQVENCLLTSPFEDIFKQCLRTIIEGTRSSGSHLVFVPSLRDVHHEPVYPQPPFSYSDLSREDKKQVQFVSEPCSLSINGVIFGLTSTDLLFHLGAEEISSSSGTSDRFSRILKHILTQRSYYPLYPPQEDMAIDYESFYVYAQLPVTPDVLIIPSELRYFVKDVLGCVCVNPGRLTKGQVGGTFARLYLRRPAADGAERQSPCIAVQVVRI
T3 sequence (P49642 whole entry, chain 3 of 3): as the sequence (P49642 whole entry, chain 3 of 3, the tested form may be a part) above
T3 sequence (P49643 whole entry, chain 4 of 3): as the sequence (P49643 whole entry, chain 4 of 3, the tested form may be a part) above

Binder | binding result [1] | binding result [2] | binding result [3] | binding result [4]
SARS-CoV-2 nsp1 middle domain (13-127), His6-MBP fusion (domain or fragment) HVQLSLPVLQVRDVLVRGFGDSVEEVLSEARQHLKDGTCGLVEVEKGVLPQLEQPYVFIKRSDARTAPHGHVMVELVAELEGIQYGRSGETLGVLVPHVGEIPVAYRKVLLRKNG | binds |  |  | 
SARS-CoV nsp1 (13-127), His6-MBP tag cleaved (domain or fragment) HVQLSLPVLQVRDVLVRGFGDSVEEALSEAREHLKNGTCGLVELEKGVLPQLEQPYVFIKRSDALSTNHGHKVVELVAEMDGIQYGRSGITLGVLVPHVGETPIAYRNVLLRKNG |  | binds | binds | 
SARS-CoV nsp1 middle domain (13-127), His6-MBP fusion (domain or fragment) HVQLSLPVLQVRDVLVRGFGDSVEEALSEAREHLKNGTCGLVELEKGVLPQLEQPYVFIKRSDALSTNHGHKVVELVAEMDGIQYGRSGITLGVLVPHVGETPIAYRNVLLRKNG | binds |  |  | 
MBP-tagged SARS-CoV nsp1 (full-length, His6-MBP fusion) (natural protein) MESLVLGVNEKTHVQLSLPVLQVRDVLVRGFGDSVEEALSEAREHLKNGTCGLVELEKGVLPQLEQPYVFIKRSDALSTNHGHKVVELVAEMDGIQYGRSGITLGVLVPHVGETPIAYRNVLLRKNGNKGAGGHSYGIDLKSYDLGDELGTDPIEDYEQNWNTKHGSGALRELTRELNGG | binds |  |  | binds
